The values below come from paper PMC3902948 (Nucleic Acids Research, 2013).

This assay has as its target Prp43-Strep (S. cerevisiae, UniProt P53131 1-767). The experiment in a line: titration of the ATPase activity of Prp43.

Sequence of Prp43-Strep (P53131 whole entry): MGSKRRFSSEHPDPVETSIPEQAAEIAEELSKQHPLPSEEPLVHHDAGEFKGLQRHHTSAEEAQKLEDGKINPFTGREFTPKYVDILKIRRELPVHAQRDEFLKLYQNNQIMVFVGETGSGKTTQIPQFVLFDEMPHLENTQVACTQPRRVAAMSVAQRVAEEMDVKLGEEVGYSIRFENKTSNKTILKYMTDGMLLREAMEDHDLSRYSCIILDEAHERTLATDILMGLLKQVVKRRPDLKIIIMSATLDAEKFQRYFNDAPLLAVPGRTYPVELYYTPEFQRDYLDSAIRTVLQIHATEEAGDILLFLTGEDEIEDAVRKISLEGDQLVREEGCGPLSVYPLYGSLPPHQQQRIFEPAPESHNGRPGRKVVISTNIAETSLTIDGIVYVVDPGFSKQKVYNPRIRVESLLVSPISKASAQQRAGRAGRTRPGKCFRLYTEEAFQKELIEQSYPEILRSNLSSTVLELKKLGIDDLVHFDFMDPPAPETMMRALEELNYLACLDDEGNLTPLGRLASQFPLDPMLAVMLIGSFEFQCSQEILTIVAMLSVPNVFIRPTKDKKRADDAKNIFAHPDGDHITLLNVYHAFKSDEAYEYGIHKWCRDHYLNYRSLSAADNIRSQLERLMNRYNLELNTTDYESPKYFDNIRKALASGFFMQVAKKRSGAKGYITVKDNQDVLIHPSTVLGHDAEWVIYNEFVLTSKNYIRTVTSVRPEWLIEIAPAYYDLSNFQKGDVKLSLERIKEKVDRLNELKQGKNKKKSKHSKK

B1: Strep-Ntr1(1–120) (domain or fragment, S. cerevisiae, UniProt Q06411 1-120, looked up)
chain: MEDSDSNTDKKFFFKKRRIDSYNYSDEEDNNSSMNSDMTYTNDALKTSSGNAPTISKLTKTYGIGAKLLSSMGYVAGKGLGKDGSGITTPIETQSRPMHNAGLGMFSNTNSSNYHSENED
The Kd is the constant that tells how readily two partners part at equilibrium. Read a high Kd as weaker binding. For the molecule B1, the Kd turned out to be 1490 ± 50 nM.

B2: Ntr1(51–110) (domain or fragment, S. cerevisiae, UniProt Q06411 51-110, looked up)
chain: NAPTISKLTKTYGIGAKLLSSMGYVAGKGLGKDGSGITTPIETQSRPMHNAGLGMFSNTN
In turn, B2 yielded a Kd of 2240 ± 110 nM. This Kd lies about 1.5-fold higher than the previous one.
